Experimental data: PMC6167435, “Genetic Removal of the CH1 Exon Enables the Production of Heavy Chain-Only IgG in Mice” (Frontiers in Immunology, 2018)

Biological target: IgG1 heavy chain of HG1 mice (γ1 CH1 exon deleted) (mouse (endogenous in serum of HG1 mice))
Assay: SDS-PAGE under non-reducing conditions with Western blotting; serum of HG1 and WT mice; detected with HRP-conjugated goat anti-mouse IgG1 heavy chain; association judged from molecular weights (covalent association)

Row | Molecule | stoichiometry N
1 | IgG1 heavy chain of HG1 mice (γ1 CH1 exon deleted) | 2

Biological target: ovalbumin (Gallus gallus (chicken), , UniProt P01012)
Assay: not given

Chain of ovalbumin (P01012 whole entry): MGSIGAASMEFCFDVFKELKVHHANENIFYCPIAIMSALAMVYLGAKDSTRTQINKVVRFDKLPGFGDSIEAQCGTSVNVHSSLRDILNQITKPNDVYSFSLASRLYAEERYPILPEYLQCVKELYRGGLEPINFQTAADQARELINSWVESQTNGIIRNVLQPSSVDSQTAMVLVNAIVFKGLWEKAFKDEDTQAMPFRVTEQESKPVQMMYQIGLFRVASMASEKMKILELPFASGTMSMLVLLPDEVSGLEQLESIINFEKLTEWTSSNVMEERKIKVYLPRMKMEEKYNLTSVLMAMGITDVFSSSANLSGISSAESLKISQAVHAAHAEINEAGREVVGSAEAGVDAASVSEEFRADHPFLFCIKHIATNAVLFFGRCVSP

Row | Molecule | binding result
2 | 3A-1 (VHH) VHH: EVKLVESGGDLVKPGGSLKLSCAASGFTFSSYGMSWIRQTPDKRLEWVATISSGGSYTYYPDSVKGRFTISRDNAKNTLYLQMSSLKSEDTAMYYCARRGRYDDTMDYWGQGTTVTVSS | binds
3 | 3A-6 (VHH) VHH: EVKLVESGGDLVKPGGSLKLSCVASGFTFSSYGMSWIRQTPDKRLEWVATISSGGSYTYYPDSVKGRFTISRDNAKNTLYLQMSSLKSEDTAMYYCARRGRYDDTMDYWGQGTTVTVSS | binds
4 | 3A-9 (VHH) VHH: EVKLVESGGDLVKPGGSLKLSCAASGFTFSSYGMSWIRQTPDKRLEWVATISSGGSYTYYPDSVKGRFTISRDNAKNTLYLQMGSLKSEDTAMYYCARRGRYDDTMDYWGQGTSLTVSS | binds

The remaining lines, values ahead:

Row | binding result | Molecule
5 | binds | 3A-20 (VHH) VHH: EVQLEESGGDLVKPGGSLKLSCAASGFTFSSYGMSWIRQTPDKRLEWVATISSGGSYTYYPDSVKGRFTISRDNAKNTLYLQMSSLKSEDTAMYYCARRGRYDDTMDYWGQGTTVTVSS
6 | binds | 3A-3 (VHH) VHH: EVKLVESGGDLVKPGGSLKLSCAASGFTFSSYGMSWIRQTPDKRLEWVATISSGGSYTYYPDSVKGRFTISRDNAENTLYLQMSSLKSEDTAMYYCARRGRYDDTMDYWGQGTSLTVSS
7 | binds | 3A-31 (VHH) VHH: EVKLVESGGDLVKPGGSLKLSCAASGFTFSSYGMSWVRQTPDKRLEWVATISSGGSYTYYPDSVKGRFTISRDNAKSTLYLQMSSLKSEDTAMYYCARRGKYDDTMDYWGQGTTLTVSS
8 | binds | 3A-2 (VHH) VHH: EVKLVESGGDLVKPGGSLKLSCAASGFTFSSYGMSWIRQTPDKRLEWVATISSGGSYTYYPDSVKGRFTISRDNAKNTLYLQMSSLKSEDTAMYYCARRGRYDDTMDYWGQGTTLTVSS
